Experimental data published in US20140105889A1 (published 2014).

Legend:
[1] = molecular target: T1, FcγRIIb (human, UniProt P31994 43-217, limits assumed); assay: ratio of SPR KD values of this variant (FcγRIIaH over FcγRIIb)
T1 construct: also called FcγIIB; FcgRIIb
T1 sequence: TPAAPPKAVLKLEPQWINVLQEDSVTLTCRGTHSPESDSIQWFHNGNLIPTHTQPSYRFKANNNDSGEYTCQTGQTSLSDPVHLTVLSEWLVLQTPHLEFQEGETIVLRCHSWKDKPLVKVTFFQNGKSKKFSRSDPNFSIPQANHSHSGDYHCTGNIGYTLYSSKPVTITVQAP
Text: (§1) Furthermore, KD(IIaR)/KD(IIb) and KD(IIaH)/KD(IIb) in the table respectively represent the value obtained by dividing the KD value of each variant for FcγRIIaR by the KD value of each variant for FcγRIIb, and the value obtained by dividing the KD value of each variant for FcγRIIaH by the KD value of each variant for FcγRIIb.

[2] = molecular target: T1, FcγRIIb; assay: ratio of SPR KD values of this variant (FcγRIIaR over FcγRIIb)
Text: as §1

[3] = molecular target: T2, FcγRIIIa type V (human, UniProt P08637 17-208, limits assumed); assay: SPR (Biacore), captured antibody, FcγR as analyte, method of Example 14
T2 construct: also called FcγRIIIaV; FcγRIIIa(V)

[4] = molecular target: T3, FcγRIIa type H (human, UniProt P12318 36-217); assay: as above
T3 construct: also called FcγRIIaH; FcγRIIa(H)
T3 sequence: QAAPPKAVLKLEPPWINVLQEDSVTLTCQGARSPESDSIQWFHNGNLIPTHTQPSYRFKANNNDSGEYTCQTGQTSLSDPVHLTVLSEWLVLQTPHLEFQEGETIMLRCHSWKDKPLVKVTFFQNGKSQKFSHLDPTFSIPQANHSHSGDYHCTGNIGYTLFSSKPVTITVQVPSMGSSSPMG

[5] = molecular target: T4, human FcRn (human); assay: SPR (Biacore), pH 7.0, 25 C, antibody captured by Protein L, human FcRn as analyte
T4 construct: also called hFcRn; soluble human FcRn complexed with β2-microglobulin
T4 sequence (chain, as listed by the source limits assumed, chain 1 of 2): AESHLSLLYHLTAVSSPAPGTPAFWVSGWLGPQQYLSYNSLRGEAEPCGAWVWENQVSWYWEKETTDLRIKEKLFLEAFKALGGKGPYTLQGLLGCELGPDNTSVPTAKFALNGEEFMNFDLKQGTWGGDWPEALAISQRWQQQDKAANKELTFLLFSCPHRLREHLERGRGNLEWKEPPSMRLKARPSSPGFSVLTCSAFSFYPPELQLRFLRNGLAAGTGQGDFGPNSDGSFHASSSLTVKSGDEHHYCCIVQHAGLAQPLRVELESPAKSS
T4 sequence (P61769 21-119 limits assumed, chain 2 of 2): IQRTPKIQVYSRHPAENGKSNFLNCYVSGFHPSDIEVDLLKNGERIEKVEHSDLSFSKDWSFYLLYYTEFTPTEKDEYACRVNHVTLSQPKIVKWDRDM
Experimental: A kinetic analysis of binding between human FcRn and the aforementioned antibodies was carried out using the Biacore T100 or T200 (GE Healthcare). The antibodies being tested were captured on the CM4 Sensor Chip (GE Healthcare) on which a suitable amount of Protein L (ACTIGEN) was suitably immobilized by amine coupling. Next, diluted human FcRn and a running buffer used as a blank were injected to allow the human FcRn to interact with the antibody captured on the sensor chip. A buffer consisting of 50 mmol/L sodium phosphate, 150 mmol/L NaCl and 0.05% (w/v) Tween 20 (pH 7.0 or pH 7.4) was used for the running buffer, and each buffer was also used to dilute the human FcRn. 10 mmol/L glycine-HCl (pH 1.5) was used to regenerate the sensor chip. All measurements of binding were carried out at 25° C. The KD(M) of each antibody to human FcRn was calculated based on kinetics parameters, i.e., the association rate constant ka (1/Ms) and the dissociation rate constant kd (1/s) calculated from a sensorgram obtained by the measurement. The Biacore T100 or T200 Evaluation Software (GE Healthcare) was used to calculate each parameter.

T2 sequence (P08637 other isoform, or with tags, fused parts or gaps limits assumed): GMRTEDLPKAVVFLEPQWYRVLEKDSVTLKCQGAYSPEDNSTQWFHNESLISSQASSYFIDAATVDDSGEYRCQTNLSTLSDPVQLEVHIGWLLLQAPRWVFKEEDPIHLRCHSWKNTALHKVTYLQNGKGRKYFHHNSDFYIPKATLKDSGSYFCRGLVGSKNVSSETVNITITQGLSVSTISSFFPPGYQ

Binder	KD (IIaH)/KD (IIb) [1]	KD (IIaR)/KD (IIb) [2]	Kd [3]	Kd [4]	Kd [5]
IL6R-BP146/IL6R-L (antibody, human IgG1, positions are EU numbering, not positions on the entry) heavy: QVQLQESGPGLVKPSETLSLTCAVSGHSISHDHAWSWVRQPPGEGLEWIGFISYSGITNYNPSLQGRVTISRDNSKNTLYLQMNSLRAEDTAVYYCARSLARTTAMDYWGEGTLVTVSSASTKGPSVFPLAPSSKSTSGGTAALGCLVKDYFPEPVTVSWNSGALTSGVHTFPAVLQSSGLYSLSSVVTVPSSSLGTQTYICNVNHKPSNTKVDKKVEPKSCDKTHTCPPCPAPEYLGDDSVFLFPPKPKDTLMISRTPEVTCVVVDVSHEDPEVKFNWYVDGVEVHNAKTKPREEQYNSTYRVVSVLTVLHQDWLNGKEYKCKVSNAALPAPIEKTISKAKGQPREPQVYTLPPSRDELTKNQVSLTCLVKGFYPSDIAVEWESNGQPENNYKTTPPVLDSDGSFFLYSKLTVDKSRWQQGNVFSCSVMHEALHNHYTQESLSLSP light: DIQMTQSPSSLSASVGDRVTITCRASQDISSYLNWYQQKPGKAPKLLIYYTSRLHSGVPSRFSGSGSGTDFTFTISSLQPEDIATYYCQQGNTLPYTFGQGTKVEIK	50	9.3	30 µM	1600 nM	–
IL6R-BP152/IL6R-L (antibody, human IgG1, EU numbering) heavy: QVQLQESGPGLVKPSETLSLTCAVSGHSISHDHAWSWVRQPPGEGLEWIGFISYSGITNYNPSLQGRVTISRDNSKNTLYLQMNSLRAEDTAVYYCARSLARTTAMDYWGEGTLVTVSSASTKGPSVFPLAPSSKSTSGGTAALGCLVKDYFPEPVTVSWNSGALTSGVHTFPAVLQSSGLYSLSSVVTVPSSSLGTQTYICNVNHKPSNTKVDKKVEPKSCDKTHTCPPCPAPDYLGDDSVFLFPPKPKDTLMISRTPEVTCVVVDVSHEDPEVKFNWYVDGVEVHNAKTKPREEQDNSTYRVVSVLTVLHQDWLNGKEYKCKVSNAALPRPIEKTISKAKGQPREPQVYTLPPSRDELTKNQVSLTCLVKGFYPSDIAVEWESNGQPENNYKTTPPVLDSDGSFFLYSKLTVDKSRWQQGNVFSCSVMHEALHNHYTQESLSLSP light: DIQMTQSPSSLSASVGDRVTITCRASQDISSYLNWYQQKPGKAPKLLIYYTSRLHSGVPSRFSGSGSGTDFTFTISSLQPEDIATYYCQQGNTLPYTFGQGTKVEIK	136	19.5	40 µM	–	–
IL6R-BP147/IL6R-L (antibody, human IgG1, EU numbering) heavy: QVQLQESGPGLVKPSETLSLTCAVSGHSISHDHAWSWVRQPPGEGLEWIGFISYSGITNYNPSLQGRVTISRDNSKNTLYLQMNSLRAEDTAVYYCARSLARTTAMDYWGEGTLVTVSSASTKGPSVFPLAPSSKSTSGGTAALGCLVKDYFPEPVTVSWNSGALTSGVHTFPAVLQSSGLYSLSSVVTVPSSSLGTQTYICNVNHKPSNTKVDKKVEPKSCDKTHTCPPCPAPEYLGDDSVFLFPPKPKDTLMISRTPEVTCVVVDVSHEDPEVKFNWYVDGVEVHNAKTKPREEQYNSTYRVVSVLTVLHQDWLNGKEYKCKVSNAALPKPIEKTISKAKGQPREPQVYTLPPSRDELTKNQVSLTCLVKGFYPSDIAVEWESNGQPENNYKTTPPVLDSDGSFFLYSKLTVDKSRWQQGNVFSCSVMHEALHNHYTQESLSLSP light: DIQMTQSPSSLSASVGDRVTITCRASQDISSYLNWYQQKPGKAPKLLIYYTSRLHSGVPSRFSGSGSGTDFTFTISSLQPEDIATYYCQQGNTLPYTFGQGTKVEIK	–	–	35 µM	–	–
IL6R-BP182/IL6R-L (antibody, human IgG1, EU numbering) heavy: QVQLQESGPGLVKPSETLSLTCAVSGHSISHDHAWSWVRQPPGEGLEWIGFISYSGITNYNPSLQGRVTISRDNSKNTLYLQMNSLRAEDTAVYYCARSLARTTAMDYWGEGTLVTVSSASTKGPSVFPLAPSSKSTSGGTAALGCLVKDYFPEPVTVSWNSGALTSGVHTFPAVLQSSGLYSLSSVVTVPSSSLGTQTYICNVNHKPSNTKVDKKVEPKSCDKTHTCPPCPAPDLLGGDSVFLFPPKPKDTLMISRTPEVTCVVVDVSHEDGEVKFNWYVDGVEVHNAKTKPREEQDNSTYRVVSVLTVLHQDWLNGKEYKCKVSNKALPKPIEKTISKAKGQPREPQVYTLPPSRDELTKNQVSLTCLVKGFYPSDIAVEWESNGQPENNYKTTPPVLDSDGSFFLYSKLTVDKSRWQQGNVFSCSVMHEALHNHYTQESLSLSP light: DIQMTQSPSSLSASVGDRVTITCRASQDISSYLNWYQQKPGKAPKLLIYYTSRLHSGVPSRFSGSGSGTDFTFTISSLQPEDIATYYCQQGNTLPYTFGQGTKVEIK	–	–	68 µM	2600 nM	–
F1269 (antibody, name in EU numbering, copies: 2 + 2) heavy: QVQLQESGPGLVKPSETLSLTCAVSGHSISHDHAWSWVRQPPGEGLEWIGFISYSGITNYNPSLQGRVTISRDNSKNTLYLQMNSLRAEDTAVYYCARSLARTTAMDYWGEGTLVTVSSASTKGPSVFPLAPSSKSTSGGTAALGCLVKDYFPEPVTVSWNSGALTSGVHTFPAVLQSSGLYSLSSVVTVPSSSLGTQTYICNVNHKPSNTKVDKKVEPKSCDKTHTCPPCPAPELRGGPKVFLFPPKPKDTLYISRTPEVTCVVVDVSHEDPEVKFNWYVDGVEVHNAKTKPREEQYNSTYRVVSVLTVLHQDWLNGKEYKCKVSNKALPAPIEKTISKAKGQPREPQVYTLPPSRDELTKNQVSLTCLVKGFYPSDIAVEWESNGQPENNYKTTPPVLDSDGSFFLYSKLTVDKSRWQQGNVFSCSVMHEALDYHVTKKDLSLSP light: not shown	–	–	–	–	169 nM
F1272 (antibody, name in EU numbering, copies: 2 + 2) heavy: QVQLQESGPGLVKPSETLSLTCAVSGHSISHDHAWSWVRQPPGEGLEWIGFISYSGITNYNPSLQGRVTISRDNSKNTLYLQMNSLRAEDTAVYYCARSLARTTAMDYWGEGTLVTVSSASTKGPSVFPLAPSSKSTSGGTAALGCLVKDYFPEPVTVSWNSGALTSGVHTFPAVLQSSGLYSLSSVVTVPSSSLGTQTYICNVNHKPSNTKVDKKVEPKSCDKTHTCPPCPAPELRGGPKVFLFPPKPKDTLYIARTPEVTCVVVDVSHEDPEVKFNWYVDGVEVHNAKTKPREEQYNSTYRVVSVLTVLHQDWLNGKEYKCKVSNKALPAPIEKTISKAKGQPREPQVYTLPPSRDELTKNQVSLTCLVKGFYPSDIAVEWESNGQPENNYKTTPPVLDSDGSFFLYSKLTVDKSRWQQGNVFSCSVMHEALDYHVTKKDLSLSP light: not shown	–	–	–	–	171 nM
F1270 (antibody, name in EU numbering, copies: 2 + 2) heavy: QVQLQESGPGLVKPSETLSLTCAVSGHSISHDHAWSWVRQPPGEGLEWIGFISYSGITNYNPSLQGRVTISRDNSKNTLYLQMNSLRAEDTAVYYCARSLARTTAMDYWGEGTLVTVSSASTKGPSVFPLAPSSKSTSGGTAALGCLVKDYFPEPVTVSWNSGALTSGVHTFPAVLQSSGLYSLSSVVTVPSSSLGTQTYICNVNHKPSNTKVDKKVEPKSCDKTHTCPPCPAPELRGGPKVFLFPPKPKDTLYIARTPEVTCVVVDVSHEDPEVKFNWYVDGVEVHNAKTKPREEQYNSTYRVVSVLTVLHQDWLNGKEYKCKVSNKALPAPIEKTISKAKGQPREPQVYTLPPSRDELTKNQVSLTCLVKGFYPSDIAVEWESNGQPENNYKTTPPVLDSDGSFFLYSKLTVDKSRWQQGNVFSCSVMHEALHYHVTKKDLSLSP light: not shown	–	–	–	–	118 nM
